Assay results published in US20110076723A1, “ANTIBODY-PEPTIDE FUSED SYNERGIBODY” (SAMSUNG ELECTRONICS CO., LTD., priority 2008, published 2011).

B1: Syn-Ang-VEGFR-13: fused protein synergibody SAITAng-2-3 × DTN9VEGFR-2-3, peptide at C-terminal of heavy chain (protein)
heavy (part 1 of 2): DVQLVESGGGLVQPGGSRKLSCAASGFTFSSFGMHWVRQAPEKGLEWVAYISSDSSTIYYADTVKGRFTISRDNPKNTLFLQMTSLRSEDTAMYYCAREGGYDDYYAMDYWGQGTSVTVSS
heavy (part 2 of 2): EAGAYWCKAWGLSPCLVT
light: DIQMTQSPASQSASLGESVTITCLASQTIGTWLAWYQQKPGKSPQLLIYAATSLADGVPSRFSGSGSGTKFSFKISSLQAEDFVSYYCQQLYSIPLTFGGGTKLEIK
modifications: left off: a dimerising Fc or GST
notes: fused protein synergibody SAITAng-2-3 × DTN9VEGFR-2-3, peptide at C-terminal of heavy chain
B2: Syn-Ang-VEGFR-14: fused protein synergibody SAITAng-2-3 × DTN10VEGFR-2-4, peptide at C-terminal of heavy chain (protein)
heavy (part 1 of 2): DVQLVESGGGLVQPGGSRKLSCAASGFTFSSFGMHWVRQAPEKGLEWVAYISSDSSTIYYADTVKGRFTISRDNPKNTLFLQMTSLRSEDTAMYYCAREGGYDDYYAMDYWGQGTSVTVSS
heavy (part 2 of 2): TGSGRMCDGSGPPTNCWFT
light: DIQMTQSPASQSASLGESVTITCLASQTIGTWLAWYQQKPGKSPQLLIYAATSLADGVPSRFSGSGSGTKFSFKISSLQAEDFVSYYCQQLYSIPLTFGGGTKLEIK
modifications: left off: a dimerising Fc or GST
notes: fused protein synergibody SAITAng-2-3 × DTN10VEGFR-2-4, peptide at C-terminal of heavy chain
B3: Syn-Ang-VEGFR-15: fused protein synergibody SAITAng-2-3 × DTN11VEGFR-2-5, peptide at C-terminal of heavy chain (protein)
heavy (part 1 of 2): DVQLVESGGGLVQPGGSRKLSCAASGFTFSSFGMHWVRQAPEKGLEWVAYISSDSSTIYYADTVKGRFTISRDNPKNTLFLQMTSLRSEDTAMYYCAREGGYDDYYAMDYWGQGTSVTVSS
heavy (part 2 of 2): PGSQGYCHLNMRYQWICDSE
light: DIQMTQSPASQSASLGESVTITCLASQTIGTWLAWYQQKPGKSPQLLIYAATSLADGVPSRFSGSGSGTKFSFKISSLQAEDFVSYYCQQLYSIPLTFGGGTKLEIK
modifications: left off: a dimerising Fc or GST
notes: fused protein synergibody SAITAng-2-3 × DTN11VEGFR-2-5, peptide at C-terminal of heavy chain
B4: Syn-Ang-VEGFR-16: fused protein synergibody SAITAng-2-4 × DTN6VEGFR-2-1, peptide at C-terminal of heavy chain (protein)
heavy (part 1 of 2): QVQLQQSGAELARPGASVKLSCKASGYTFTDYYINWAKQRTGQGLEWIGEIYPGSGDTYYNEKFKGKATLTADKSSSTAYMQLSSLTSEDSAVYFCARYGYKGVYFDYWGQSTTLTVSS
heavy (part 2 of 2): TGSDDLCYTFPCMHY
light: ENVLTQSPAIMAASLGQKVTMTCSASSSVSSSYLHWYQQKSGASPKPLIHRTSNLASGVPARFSGSGSGTSYSLTISSVEAEDDATYYCQQWSGYPFTFGAGTKLELK
modifications: left off: a dimerising Fc or GST
notes: fused protein synergibody SAITAng-2-4 × DTN6VEGFR-2-1, peptide at C-terminal of heavy chain
B5: Syn-Ang-VEGFR-17: fused protein synergibody SAITAng-2-4 × DTN8VEGFR-2-2, peptide at C-terminal of heavy chain (protein)
heavy (part 1 of 2): QVQLQQSGAELARPGASVKLSCKASGYTFTDYYINWAKQRTGQGLEWIGEIYPGSGDTYYNEKFKGKATLTADKSSSTAYMQLSSLTSEDSAVYFCARYGYKGVYFDYWGQSTTLTVSS
heavy (part 2 of 2): EAGKETCGYEWQYCPRP
light: ENVLTQSPAIMAASLGQKVTMTCSASSSVSSSYLHWYQQKSGASPKPLIHRTSNLASGVPARFSGSGSGTSYSLTISSVEAEDDATYYCQQWSGYPFTFGAGTKLELK
modifications: left off: a dimerising Fc or GST
notes: fused protein synergibody SAITAng-2-4 × DTN8VEGFR-2-2, peptide at C-terminal of heavy chain
B6: Syn-Ang-VEGFR-19: fused protein synergibody SAITAng-2-4 × DTN10VEGFR-2-4, peptide at C-terminal of heavy chain (protein)
heavy (part 1 of 2): QVQLQQSGAELARPGASVKLSCKASGYTFTDYYINWAKQRTGQGLEWIGEIYPGSGDTYYNEKFKGKATLTADKSSSTAYMQLSSLTSEDSAVYFCARYGYKGVYFDYWGQSTTLTVSS
heavy (part 2 of 2): TGSGRMCDGSGPPTNCWFT
light: ENVLTQSPAIMAASLGQKVTMTCSASSSVSSSYLHWYQQKSGASPKPLIHRTSNLASGVPARFSGSGSGTSYSLTISSVEAEDDATYYCQQWSGYPFTFGAGTKLELK
modifications: left off: a dimerising Fc or GST
notes: fused protein synergibody SAITAng-2-4 × DTN10VEGFR-2-4, peptide at C-terminal of heavy chain
B7: Syn-Ang-VEGFR-18: fused protein synergibody SAITAng-2-4 × DTN9VEGFR-2-3, peptide at C-terminal of heavy chain (protein)
heavy (part 1 of 2): QVQLQQSGAELARPGASVKLSCKASGYTFTDYYINWAKQRTGQGLEWIGEIYPGSGDTYYNEKFKGKATLTADKSSSTAYMQLSSLTSEDSAVYFCARYGYKGVYFDYWGQSTTLTVSS
heavy (part 2 of 2): EAGAYWCKAWGLSPCLVT
light: ENVLTQSPAIMAASLGQKVTMTCSASSSVSSSYLHWYQQKSGASPKPLIHRTSNLASGVPARFSGSGSGTSYSLTISSVEAEDDATYYCQQWSGYPFTFGAGTKLELK
modifications: left off: a dimerising Fc or GST
notes: fused protein synergibody SAITAng-2-4 × DTN9VEGFR-2-3, peptide at C-terminal of heavy chain
B8: Syn-Ang-VEGFR-20: fused protein synergibody SAITAng-2-4 × DTN11VEGFR-2-5, peptide at C-terminal of heavy chain (protein)
heavy (part 1 of 2): QVQLQQSGAELARPGASVKLSCKASGYTFTDYYINWAKQRTGQGLEWIGEIYPGSGDTYYNEKFKGKATLTADKSSSTAYMQLSSLTSEDSAVYFCARYGYKGVYFDYWGQSTTLTVSS
heavy (part 2 of 2): PGSQGYCHLNMRYQWICDSE
light: ENVLTQSPAIMAASLGQKVTMTCSASSSVSSSYLHWYQQKSGASPKPLIHRTSNLASGVPARFSGSGSGTSYSLTISSVEAEDDATYYCQQWSGYPFTFGAGTKLELK
modifications: left off: a dimerising Fc or GST
notes: fused protein synergibody SAITAng-2-4 × DTN11VEGFR-2-5, peptide at C-terminal of heavy chain

The molecules below were run on HUVEC (assay: Cell-based functional assay, endothelial cell tube formation (BD BioCoat Angiogenesis System)). Settings: 5 μM fused protein synergibody, 18 hours; unrelated control group 12,227 ± 1,232.
Set-up: species or system human
Description: Chimeric antibodies may be screened by functional assays such as cell-based assay for inhibition activity. In this example, BD BioCoat™ Angiogenesis System-Endothelial Cell Tube Formation (BD Biosciences) is used. BD Falcon 96-well Black/Clear plate coated with BD Matrigel Matrix that had been stored at −20° C. is slowly melted at 4° C. for 6 hours, and the mat cover of the plate is removed inside a sterile clean bench. Then it is left at 37° C. , 5% CO2 for 30 minutes so that the Matrigel™ Matrix would form polymers. Then it is made into a suspension by treating HUVEC, cultured on a petridish containing EGM-2 MV (Lonza) medium added with 10% fetal bovine serum to 70 to 80% confluence, with 0.5% Trypsin-EDTA (Gibco). Then it is resuspended in a culture medium containing 10% fetal bovine serum to a cell concentration of 4×10^5 cells/ml. At this time, 5 μM of each anti-Ang-2 chimeric antibodies expressed and purified in Section 5 above are also added and resuspended. Then 50 μl (about 2×10^4 cells) of each of the suspension is added to each well of the plate and incubated at 37° C. , 5% CO2 for 18 hours. Then the medium is removed and each well is washed twice with 100 μl of Hanks' balanced salt solution (HBSS, Invitrogen) ensuring that the tubes of the cells formed on BD Matrigel™ Matrix are not damaged. 50 μl of calcein AM (BD sciences) dissolved in HBSS at the concentration of 8 μg/ml is added to each well. The plate is then left to react at 37° C., 5% CO2 for 30 minutes and the calcein AM (BD sciences) solution is removed and washed twice with HBSS. Lastly, an image of the length of the entire tube of HUVEC formed on BD Matrigel™ Matrix is obtained on a fluorescent microscope and analyzed by using MetaMorph® software (Universal Imaging Corporation™, http://www.moleculardevices.com).
The peptides synthesized in Section 6A above are screened by cell-based functional assay for inhibition activity. The method described in Example 1, Section 7 is used, except that 5 μM synthesized peptides are added instead of anti-Ang-2 antibodies.
The fused protein synergibodies prepared in Section 1 above are screened using cell-based functional assay for inhibition activity. The method described in Example 1, Section 7 is used, except that, in this example, 5 μM of fused protein synergibodies are added instead of anti-Ang-2 antibodies.

Molecule | Length of entire tube of HUVEC (2 × 10^4 cells) (pixels)
B1 | 4,216 ± 747 pixels
B2 | 4,183 ± 698 pixels
B3 | 4,116 ± 815 pixels
B4 | 5,022 ± 809 pixels
B5 | 5,215 ± 714 pixels
B6 | 5,329 ± 822 pixels
B7 | 5,723 ± 736 pixels
B8 | 5,512 ± 699 pixels
